B1: TPR t1 (parent)
chain: GACCAAUCUGCCCUCAGAGCUCGAGAACAUCUUCGGAUGCAGAGGAGGCAGGCUUCGGUGGCGCGAUAGCGCCAACGUCCUCAACCUCCAAUGCAUCCCACCACAUGAUGAUGCCUGAAGAGCCUUGGUUUUUUG

Variants of: B1
Test: polymerase ribozyme fitness, log enrichment relative to wild type (log ratio); higher = more active; in vitro selection for triplet polymerase activity
In short: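 In triplicate, a single round of in vitro selection was run on each mutant library, PCR-built and transcribed, covering one subunit of a heterodimeric triplet polymerase ribozyme. Frozen incubation at −7 °C followed annealing with a biotinylated primer, partner subunit and triplets, and extended constructs were then gel-excised, streptavidin-captured and taken through RT-PCR. Fitness is the logarithm of genotype enrichment over wild-type enrichment, from inverse-variance-weighted replicate averages of Illumina-sequenced inputs and outputs. […] only genotypes with ≥10 input reads and ≥1 read per output were kept.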

Compared with A6G C11A U14A C28A G69U U78C, A5U C15A is higher in “polymerase ribozyme fitness (log ratio)” value: -3.37 for the first, -2.36 for the second.

Going from A5U G61U to A6G A41G A50G C70U, the “polymerase ribozyme fitness (log ratio)” value falls from -0.313 to -0.773.

Compared with A6U A43U U96A G122A, A5G G48C G63A G117C is lower in “polymerase ribozyme fitness (log ratio)” value: -2.28 for the first, -6.49 for the second.

First: A6G G117A C124U
Second: A5U C124A
The “polymerase ribozyme fitness (log ratio)” value of the first is lower: -0.162 for the first, 2.04 for the second.

Going from A6G G48U G63A to A5U C11G A16U G60U U87A A103C, the “polymerase ribozyme fitness (log ratio)” value falls from -0.619 to -5.47.

Going from A6U G42U C49U C101U G110U C123G to A6C U30G G63A A91U A100G C104G U109G, the “polymerase ribozyme fitness (log ratio)” value rises from -6.14 to -5.44.

Compared with A6U C101A, A6U A74G is higher in “polymerase ribozyme fitness (log ratio)” value: -0.91 for the first, -0.0819 for the second.

Compared with A6U A121C, A6U C11G G69U C76A U125G is lower in “polymerase ribozyme fitness (log ratio)” value: 1.91 for the first, -2.63 for the second.

Going from A6C G17C U87C to A6C U9C A46C C62U C82U, the “polymerase ribozyme fitness (log ratio)” value rises from -3.71 to -0.79.

Compared with A6C C97A, A6U C22A A43C C79G C97U is lower in “polymerase ribozyme fitness (log ratio)” value: -4.04 for the first, -8.2 for the second.

Going from A5G U9A G52U to A5U C11A G58U C70U C101U, the “polymerase ribozyme fitness (log ratio)” value falls from -1.25 to -2.57.

First: A6U C22A C40A G61U
Second: A6C G63A U87G C88A
The “polymerase ribozyme fitness (log ratio)” value of the first is lower: -5.59 for the first, -1.25 for the second.

A6C G48U C53U U59G C70U A90C and A6U C70U A105U U125A are within 0.2 log units of each other in “polymerase ribozyme fitness (log ratio)” value: -4.07 for the first, -3.91 for the second.

Compared with A6U G42U, A5U G71A C98U G127A G128U is lower in “polymerase ribozyme fitness (log ratio)” value: -1.17 for the first, -5.31 for the second.

Compared with A6C G93A, A6G G39A A68G C86U G117A is lower in “polymerase ribozyme fitness (log ratio)” value: -1.25 for the first, -5.73 for the second.

First: A6U C56U C85A
Second: A6U G120A
The “polymerase ribozyme fitness (log ratio)” value of the first is lower: -2.08 for the first, 0.678 for the second.

Going from A5U G51U G77U to A6U A41U G61A C62G U112A, the “polymerase ribozyme fitness (log ratio)” value falls from -4.52 to -6.58.

First: A6G C11G A118U
Second: A6U U106A
The “polymerase ribozyme fitness (log ratio)” value of the first is higher: 0.0523 for the first, -0.188 for the second.

First: A5U C31A G71A A84C C124A
Second: A5U C73A
The “polymerase ribozyme fitness (log ratio)” value of the first is lower: -6.43 for the first, -0.847 for the second.

Going from A6C G52C to A6U U112G U130A, the “polymerase ribozyme fitness (log ratio)” value rises from -0.394 to 0.321.

Compared with A5U C40A C115G G120A, A6U C13U G39C is higher in “polymerase ribozyme fitness (log ratio)” value: -3.72 for the first, -0.104 for the second.

Going from A6C C13A G48C C49G to A6G C62U C73U U112G, the “polymerase ribozyme fitness (log ratio)” value rises from -3.01 to 0.725.

Compared with A5U C70A C97U U125A, A6U G69A C115U G120C is lower in “polymerase ribozyme fitness (log ratio)” value: -2.48 for the first, -5.82 for the second.

First: A5U C88G G117A G120C
Second: A6G C15U C56U G69U U112A G117A
The “polymerase ribozyme fitness (log ratio)” value of the first is lower: -4.11 for the first, -1.54 for the second.

Going from A6G G42C G52U to A5U C72G, the “polymerase ribozyme fitness (log ratio)” value rises from -2.37 to -0.174.

Compared with A6U C72A C102A C123G, A6G C31A C64U C89G C123G is lower in “polymerase ribozyme fitness (log ratio)” value: 0.361 for the first, -6.4 for the second.

Going from A5U G71C to A6C G71C C79U, the “polymerase ribozyme fitness (log ratio)” value rises from -2.73 to -0.784.

First: A6G U7A
Second: A6G C13G A111C U112A
The “polymerase ribozyme fitness (log ratio)” value of the first is higher: 0.167 for the first, -1.87 for the second.

Compared with A6U C88A, A6U C88U is lower in “polymerase ribozyme fitness (log ratio)” value: -0.42 for the first, -1.02 for the second.

Going from A6C G47U G69C C85A to A6U C49A C62U, the “polymerase ribozyme fitness (log ratio)” value rises from -4.06 to -1.33.

Compared with A5U A43U G63A, A5U C11A G42C C88U U106A A121C U125A is higher in “polymerase ribozyme fitness (log ratio)” value: -3.99 for the first, -1.65 for the second.

Compared with A6G C11U G48C C64U G113A G117A, A6G A46U is higher in “polymerase ribozyme fitness (log ratio)” value: -7.08 for the first, -1.37 for the second.

First: A6U U38A G63C C79U A84G C89U
Second: A6U C53G C124U U129A
The “polymerase ribozyme fitness (log ratio)” value of the first is lower: -3.61 for the first, -0.73 for the second.

First: A6C A18U G47U U125G
Second: A6C C70G
The “polymerase ribozyme fitness (log ratio)” value of the first is lower: -3.87 for the first, -2.95 for the second.

Compared with A6C C70U, A6C A18U G52C C79U C89U C101U is lower in “polymerase ribozyme fitness (log ratio)” value: -0.65 for the first, -2.96 for the second.

Going from A6U C86U C88A A121U to A6C G42C, the “polymerase ribozyme fitness (log ratio)” value falls from 0.522 to -1.69.

A6G G45C G63C U81C and A5U U9A G48U C49G C101A are within 0.2 log units of each other in “polymerase ribozyme fitness (log ratio)” value: -1.8 for the first, -1.73 for the second.

Compared with A5U G48U C56U G93A, A6U C11U A46C G51C G57U A121C is lower in “polymerase ribozyme fitness (log ratio)” value: -0.937 for the first, -2.71 for the second.

First: A5U U92C
Second: A6C G48U U87C G110U
The “polymerase ribozyme fitness (log ratio)” value of the first is higher: -1.56 for the first, -2 for the second.

Going from A6C G42U C79U A90C to A5U A6G A46C G61A C115G, the “polymerase ribozyme fitness (log ratio)” value falls from -0.731 to -2.35.

A5U U87G and A5U U87A are within 0.2 log units of each other in “polymerase ribozyme fitness (log ratio)” value: -0.121 for the first, -0.245 for the second.

Going from A5U G45C G60A to A6U C62U U112G C115A U131C G135C, the “polymerase ribozyme fitness (log ratio)” value falls from -0.71 to -1.02.

Source: the RNAGym collection of RNA variant scans (doi:10.1073/pnas.2313332121)
